Test system: Ser90 mutant DDX3

GSK3
phosphorylation (32P incorporation): GSK3 fails to phosphorylate DDX3 with a point mutation at Ser90
